Reference: patent US20260069689A1 (Regeneron, published 2026)
Substitutions are numbered along the chain they refer to.

B1: mAb15170 (antibody, V domains shown)
VH: EVQLVESGGGLVQPGGSLRLSCAATGITVSSNYMSWVRQAPGKGLEWVSLIYSGGSTFYADSVKGRFTISRHNSKNTLYLQMSSLRAEDTAVYYCARDLVDFGMDVWGQGTTVTVSS
VL: DIQLTQSPSSLSASVGDRVTITCRASQGISNYLAWYQQKPGKAPKLLIYAASTLQSGVPSRFSGSGSGTDFTLTISSLQPEDFGTYYCQQLNSDSPTFGQGTKVEIKR
B2: mAb15150 (antibody, V domains shown)
VH: EVQLVETGGGLIQPGGSLRLSCAAPGFIVSSNYMSWVRQAPGKGLEWVSLLYPGGSTYYADSVKGRFTISRDNSKNTLYLQMNSLRADDTAVYYCARVLPIVEDHFDYWGQGTLVTVSS
VL: DIQLTQSPSFLSASVGDRVTITCRASQGMSSYLAWYQKKPGKAPKLLIYGATILQSGVPSRFSGSGSGTEFTLTISSLQPEDFATYYCQQLNSDPLYMYTFGQGTKLEIKR
B3: mAb14234 (antibody)
heavy: not shown
light: QSVLTQPPSVSGAPGQRVTISCTGSSSNIGIGYDVHWYQQLPGTVPKLLIYGNTNRPSGVPDRFSGSKSGTSASLAITGLQAEDEADYYCQSYDSSLSSYVFGTGTKVTVLGQPKAAPSVTLFPPSSEELQANKATLVCLISDFYPGAVTVAWKADSSPVKAGVETTTPSKQSNNKYAASSYLSLTPEQWKSHRSYSCQVTHEGSTVEKTVAPTECS
B4: mAb14280 (antibody)
heavy: not shown
light: QSALTQPPSASGSPGQSVTISCTGTSSDVGGYNFVSWYQQHPGKAPKLMIYEVSKRPSGVPDRFSGSKSGNTASLTVSGLQAEDEADYYCSSYAGSNNFVFGTGTKVTVLGQPKAAPSVTLFPPSSEELQANKATLVCLISDFYPGAVTVAWKADSSPVKAGVETTTPSKQSNNKYAASSYLSLTPEQWKSHRSYSCQVTHEGSTVEKTVAPTECS
B5: mAb15165 (antibody, V domains shown)
VH: EVQLVESGGGLVQPGGSLRLSCAASGFTVSSNYMSWVRQAPGKGLEWVSAIYSGDSTYYADSVKGRFTISKDNSKNTLYLQMNSLRGEDTAVYYCARLGGALQAYDGAFDYWGQGTLATVSS
VL: QSALTQPASVSGSPGQSITISCTGTSSDFGSYNLVSWYQQHPGKAPKLMIYEGNKRPSGVSIRFSGSKSGNTASLTISGLQAEDEADYYCSSYAGSSTWVFGGGTKLTVLG
B6: mAb15166 (antibody, V domains shown)
VH: EVQLVESGGGLVQPGGSLRLSCAASGFTVTSNYMSWVRQAPGKGLEWVSAIYSGESTYYADSVKGRFTISRDSSKNTLYLQMNSLRVEDTAVYYCASIHDYSNYVGGFDPWGQGTLVTVSS
VL: B5 VL with T25P, N54T, I62N
B7: mAb15151 (antibody, V domains shown)
VH: QVQLVESGGGVVQPGRSLRLSCAASGFVFNSYGMHWVRQAPGKGLEWVAVLWYEGSKNYYADSVKGRFTISRDNSKNTLYLQMNSLRAEDTAVYYCARHGSGSFFGYYLDYWGQGTLVTVSS
VL: DIQMTQSPSSLSASVGDRVTITCRASHNINDFLNWYQQKPGKAPRLLIYAASSLQSGVPSRFSGSGSGTDFTLTISSLQPEDFATYYCQESYTTPPTFGQGTKLEIKR
B8: mAb13458 (antibody)
heavy: not shown
light: AIQMTQSPSSLSASVGDRVTITCRASQDIRNDLGWYQQKPGKAPKLLIYSASSLQTGVPSRFSGSGSGTDFTLTISSLHPEDFATYYCLQDYWYTWTFGQGTKVEIKRTVAAPSVFIFPPSDEQLKSGTASVVCLLNNFYPREAKVQWKVDNALQSGNSQESVTEQDSKDSTYSLSSTLTLSKADYEKHKVYACEVTHQGLSSPVTKSFNRGEC
B9: mAb14235 (antibody)
heavy: not shown
light: QSALTQPASVSGSPGQSITISCTATSSDVGTYNYVSWFQHHPGKAPKLMIYEVTNRPSGVSNRFSGSKSGNTASLTISGLQAEDEADYYCSSYTTTSIVFGGGTKLTVLGQPKAAPSVTLFPPSSEELQANKATLVCLISDFYPGAVTVAWKADSSPVKAGVETTTPSKQSNNKYAASSYLSLTPEQWKSHRSYSCQVTHEGSTVEKTVAPTECS
B10: mAb14230 (antibody)
heavy: not shown
light: EIVLTQSPGTLSLSPGERATLSCRASQTVISTYLAWYQQKPGQSPRLLIYGASSRATGIPDRFSGSGSGTDFTLTISRLEPEDFAVYYCQQYGSSPQLTFGGGTKVEIKRTVAAPSVFIFPPSDEQLKSGTASVVCLLNNFYPREAKVQWKVDNALQSGNSQESVTEQDSKDSTYSLSSTLTLSKADYEKHKVYACEVTHQGLSSPVTKSFNRGEC
B11: mAb14247 (antibody)
heavy: not shown
light: QSALTQPASVSGSPGQSITISCTATSSDVGNYNYVSWYQQHPGKAPKLMIYEVSNRPSGVSNRFSGSKSGNTASLTISGLQAEDEADYYCSSYTSSSTPLVFGGGTKLTVLGQPKAAPSVTLFPPSSEELQANKATLVCLISDFYPGAVTVAWKADSSPVKAGVETTTPSKQSNNKYAASSYLSLTPEQWKSHRSYSCQVTHEGSTVEKTVAPTECS

Columns and labels:
SARS-COV-2 RBD-MMH [1] = molecular target: SARS-COV-2 RBD-MMH (SARS-CoV-2); assay: SPR 37C, run with dissociation at pH 7.4
SARS-COV-2 RBD-MMH [2] = molecular target: SARS-COV-2 RBD-MMH (SARS-CoV-2); assay: SPR 37C
SARS-COV-2 RBD-MMH [3] = molecular target: SARS-COV-2 RBD-MMH (SARS-CoV-2); assay: SPR 37C, run with dissociation at pH 5.0
[4] = molecular target: human FcγR3a 176Val allotype receptor (human, UniProt P08637 17-254); assay: cell-based or functional assay

| Binder | RBD.mmh Bound at pH 7.4 (RU) (SARS-COV-2 RBD-MMH [1]) | koff (SARS-COV-2 RBD-MMH [1]) [s⁻¹] | t½ Ratio of pH 7.4 to pH 5.0 (SARS-COV-2 RBD-MMH [2]) | RBD.mmh Bound at pH 7.4 (RU) (SARS-COV-2 RBD-MMH [3]) | koff (SARS-COV-2 RBD-MMH [3]) [s⁻¹] | t½ (SARS-COV-2 RBD-MMH [3]) [min] | EC50 (M), Jurkat/CD20/spike [4] [M] | Fold induction, Jurkat CD20 [4] [fold] | Fold induction, Jurkat/CD20/spike [4] [fold] |
| --- | --- | --- | --- | --- | --- | --- | --- | --- | --- |
| B1 | 120 | 0.000107 | 0.6 | 141 | 6.62e-05 | 174 | – | – | – |
| B2 | 87.8 | 0.000112 | 0.1 | 92.6 | 1e-05 | 1160 | – | – | – |
| B3 | 37.9 | 0.00221 | 0.7 | 40.4 | 0.00166 | 7 | 2.69e-10 | 1.1 | 12.6 |
| B4 | 72.4 | 0.024 | 0.5 | 61.7 | 0.0103 | 1.1 | 2.67e-10 | 1.1 | 13.5 |
| B5 | 110 | 0.00164 | 0.6 | 127 | 0.000973 | 11.9 | – | – | – |
| B6 | 65.2 | 0.03 | 1.2 | 60 | 0.035 | 0.3 | – | – | – |
| B7 | 219 | 0.0068 | 0.6 | 231 | 0.00439 | 2.6 | – | – | – |
| B8 | 96.5 | 0.00161 | 2.5 | 90.9 | 0.00401 | 2.9 | 1.43e-10 | 1.2 | 10.2 |
| B9 | 71.2 | 0.00148 | 0.8 | 80.8 | 0.00119 | 9.7 | 1.43e-10 | 1 | 10.8 |
| B10 | 67.6 | 0.00771 | 1.2 | 60.3 | 0.00924 | 1.3 | 1.79e-10 | 1.1 | 9.8 |
| B11 | 40.8 | 0.00158 | 1.2 | 51.9 | 0.00191 | 6.1 | 1.79e-10 | 1 | 11.3 |
